The values that follow are results of earlier work, collected in paper PMC5095918.

What is called Kd is the free concentration of one partner at which half of the binding sites on the other are occupied at equilibrium, for simple one-to-one binding.

For the series, the target named is FANCL RING (Homo sapiens) (UniProt Q9NW38).
Sequence of UniProt Q9NW38 (Q9NW38 304-366): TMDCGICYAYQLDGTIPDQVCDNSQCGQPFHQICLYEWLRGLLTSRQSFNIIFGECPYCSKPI

On to UBE2T (from UniProt Q9NPD8), for which the Kd is 450 nM.
